Here are results for 2 molecules from patent US20060217891A1.

The target in this assay is Fas (Receptor) on the Fas-expressing human ovarian cancer cell line NOS4 (human) (UniProt P25445). In words: cell-based or functional assay.

Ends that are not written are not given here.

Fas (Receptor) on the Fas-expressing human ovarian cancer cell line NOS4 (human), sequence (P25445 26-335): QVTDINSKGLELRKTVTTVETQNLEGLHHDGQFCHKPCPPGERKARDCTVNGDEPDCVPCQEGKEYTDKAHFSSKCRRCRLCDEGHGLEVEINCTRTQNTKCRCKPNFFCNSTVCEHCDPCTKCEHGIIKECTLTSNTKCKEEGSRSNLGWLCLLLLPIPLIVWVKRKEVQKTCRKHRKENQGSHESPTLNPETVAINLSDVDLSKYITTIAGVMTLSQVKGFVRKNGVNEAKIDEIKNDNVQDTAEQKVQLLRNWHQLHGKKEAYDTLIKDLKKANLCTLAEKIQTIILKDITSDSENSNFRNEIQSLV

B1: (FLLP-1)4-MAP8 (four WEWT peptides bound to MAP-8) (peptide, part only)
chain: WEWT
modifications: also: tetramer: each copy bound to one of 4 branches of MAP-8, remaining four amino groups of MAP-8 protected
In turn, B1 returned an Apoptosis induction Activity (%) of NOS4 cells at 0.01 µg/ml of 7%, an Apoptosis induction Activity (%) of NOS4 cells at 0.03 µg/ml of 15%, an Apoptosis induction Activity (%) of NOS4 cells at 0.1 µg/ml of 48% and an Apoptosis induction Activity (%) of NOS4 cells at 0.3 µg/ml of 67%. The same molecule registered an Apoptosis induction Activity (%) of NOS4 cells at 1 µg/ml of 78%.

B2: Fas complementary peptide tetramer [(FRP-2)4-MAP] (peptide, part only)
chain: EPPMTFISIHTMCH
modifications: also: tetramer: each copy bound to one of four branches of a lysine polymer (MAP)
Turning to B2, the apoptosis induction potential relative to the monomer FRP-2 was determined as 30 times and the apoptosis of NOS4 cells, same method as Test Example 1, at 5 mg/ml as printed worked out at 50%.
